The record followed here is paper PMC5299047 (Structure (London, England : 1993), 2017).

As a reminder, the stoichiometry N is the number of molecules, sites or subunits per partner or assembly.

The data set concerns the molecule itself. The data set is described as follows: SAXS.

B1: Saccharomyces cerevisiae Rnt1p (intact protein) (enzyme, UniProt Q02555 1-471, looked up)
chain: MGSKVAGKKKTQNDNKLDNENGSQQRENINTKTLLKGNLKISNYKYLEVIQLEHAVTKLVESYNKIIELSPNLVAYNEAVNNQDRVPVQILPSLSRYQLKLAAELKTLHDLKKDAILTEITDYENEFDTEQKQPILQEISKADMEKLEKLEQVKREKREKIDVNVYENLNEKEDEEEDEGEDSYDPTKAGDIVKATKWPPKLPEIQDLAIRARVFIHKSTIKDKVYLSGSEMINAHNERLEFLGDSILNSVMTLIIYNKFPDYSEGQLSTLRMNLVSNEQIKQWSIMYNFHEKLKTNFDLKDENSNFQNGKLKLYADVFEAYIGGLMEDDPRNNLPKIRKWLRKLAKPVIEEATRNQVALEKTDKLDMNAKRQLYSLIGYASLRLHYVTVKKPTAVDPNSIVECRVGDGTVLGTGVGRNIKIAGIRAAENALRDKKMLDFYAKQRAAIPRSESVLKDPSQKNKKRKFSDTS
On to B1, for which the “stoichiometry N” value stood at 2.
